Reference: paper PMC5877952 (Proceedings of the National Academy of Sciences of the …, 2018)

Target: T1, SAX-3–Flag (C. elegans, UniProt G5EBF1 24-1273)
T1 sequence (looked up): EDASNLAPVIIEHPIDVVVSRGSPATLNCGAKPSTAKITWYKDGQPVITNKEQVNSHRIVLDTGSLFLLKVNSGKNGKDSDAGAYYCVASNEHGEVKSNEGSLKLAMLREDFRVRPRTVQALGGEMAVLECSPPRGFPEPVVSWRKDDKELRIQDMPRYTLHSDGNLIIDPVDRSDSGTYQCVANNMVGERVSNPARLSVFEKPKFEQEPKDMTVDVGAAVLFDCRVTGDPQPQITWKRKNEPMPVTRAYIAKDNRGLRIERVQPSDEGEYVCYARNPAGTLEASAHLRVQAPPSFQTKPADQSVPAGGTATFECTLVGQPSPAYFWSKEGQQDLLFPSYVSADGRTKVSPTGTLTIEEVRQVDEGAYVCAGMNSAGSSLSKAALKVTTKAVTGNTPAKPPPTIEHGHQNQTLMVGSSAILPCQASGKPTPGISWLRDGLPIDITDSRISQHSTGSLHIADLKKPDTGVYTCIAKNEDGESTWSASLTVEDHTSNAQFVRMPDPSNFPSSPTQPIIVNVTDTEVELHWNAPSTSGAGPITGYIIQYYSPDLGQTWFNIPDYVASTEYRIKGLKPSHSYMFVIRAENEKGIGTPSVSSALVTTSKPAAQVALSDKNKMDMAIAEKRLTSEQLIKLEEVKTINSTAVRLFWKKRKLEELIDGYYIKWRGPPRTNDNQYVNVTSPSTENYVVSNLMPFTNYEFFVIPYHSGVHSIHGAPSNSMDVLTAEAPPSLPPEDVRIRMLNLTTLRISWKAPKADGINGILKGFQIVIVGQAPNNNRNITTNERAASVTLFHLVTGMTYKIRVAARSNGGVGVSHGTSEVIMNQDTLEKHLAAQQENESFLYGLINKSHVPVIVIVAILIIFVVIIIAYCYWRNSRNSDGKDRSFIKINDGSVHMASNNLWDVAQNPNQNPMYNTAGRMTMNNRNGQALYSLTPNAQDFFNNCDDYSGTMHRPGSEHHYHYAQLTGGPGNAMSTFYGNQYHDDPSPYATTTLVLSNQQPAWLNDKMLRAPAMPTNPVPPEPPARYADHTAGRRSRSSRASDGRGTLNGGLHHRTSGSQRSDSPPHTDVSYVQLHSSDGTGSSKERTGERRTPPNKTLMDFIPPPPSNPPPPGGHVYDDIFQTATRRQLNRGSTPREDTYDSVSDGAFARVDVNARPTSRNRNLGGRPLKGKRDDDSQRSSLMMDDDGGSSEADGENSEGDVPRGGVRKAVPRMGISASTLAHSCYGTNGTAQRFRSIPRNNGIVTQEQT
Test: pull-down

binding result: binds
B1: CWN-2–GST (ligand, C. elegans, UniProt P34889 38-360, looked up)
chain: AGHNVKPVCELPGLSPGQAQVCELFKDHMPAVSIGAQNAIQECQRQFTGHRWNCSTHYSTGMLGPIHKMATREAAFTYAILSAGVTHEIGRRCKQGLLTSCGCSDETKPKNVPTDWSWGGCGDNVEYGYKFSRDFIDIREKEHDPKRNHDNGRSLMNRRNNEAGRKILKRHRKPKCKCHGVSGACNMKTCWMQLPSMEQVGKILRNKYDKAIRVQINDRGNLQLLADEATKERKTRALPTDLVFMDDSPDYCRFDRHSGTLGTEGRVCKRGSGGAEGCDSLCCGRGYNTYTQEVKSKCNCKFEWCCKVVCQTCNNVTQVDICK
